Measured values as given in PMC11930087, “Mobility of four structural regions drives isoform-specific properties of photoenzyme LPOR in plants” (The Journal of Biological Chemistry, 2025).

Biological target: the molecule itself
Assay: negative-stain transmission electron microscopy; reaction mixtures of 5 μM Pchlide, 15 μM AtPORB, 200 μM NADPH and either 100 μM lowMGDG lipid mixture (2.5 mol% MGDG, 47.5 mol% PG, 50 mol% DGDG) or OPT lipids; filaments seen

B1: light-dependent protochlorophyllide oxidoreductase B from Arabidopsis thaliana (enzyme)
chain: QTAATSSPTVTKSVDGKKTLRKGNVVVTGASSGLGLATAKALAETGKWNVIMACRDFLKAERAAKSVGMPKDSYTVMHLDLASLDSVRQFVDNFRRTETPLDVLVCNAAVYFPTAKEPTYSAEGFELSVATNHLGHFLLARLLLDDLKKSDYPSKRLIIVGSITGNTNTLAGNVPPKANLGDLRGLAGGLNGLNSSAMIDGGDFDGAKAYKDSKVCNMLTMQEFHRRFHEETGVTFASLYPGCIASTGLFREHIPLFRALFPPFQKYITKGYVSETESGKRLAQVVSDPSLTKSGVYWSWNNASASFENQLSEEASDVEKARKVWEISEKLVGLA
notes: LPOR B of Arabidopsis thaliana, P21218; probably without the transit peptide, as the constructs cloned here; In the assays it stood with Pchlide, NADPH and lipids; also called AtPORB; LPOR
  binding result: binds
